Test results reported in patent US20060057696A1, “Sugar chain synthases” (priority 2002, published 2006).
Blank lines part the entries; values can stand above or below the molecule they belong to.

Key:
[1] = target: T1, PA-hST6Gal II (human ST6Gal II) (Homo sapiens, UniProt Q96JF0); experiment: Sialyltransferase activity of PA-hST6Gal II toward acceptor substrates; format: biochemical; conditions: PA-hST6Gal II; incorporation with Galβ1,4GlcNAc taken as 100; 0.5 mg/ml glycolipids, 1 mg/ml glycoproteins and oligosaccharides
T1 construct: amino acids 33-529 in the case of human ST6Gal II; signal peptide of mouse immunoglobulin IgM (N); made in house; host or cells: COS-7 cells, transient expression of pcDSA-hST6Gal II; protein recovered from medium on IgG-Sepharose
T1 sequence (Q96JF0 33-529): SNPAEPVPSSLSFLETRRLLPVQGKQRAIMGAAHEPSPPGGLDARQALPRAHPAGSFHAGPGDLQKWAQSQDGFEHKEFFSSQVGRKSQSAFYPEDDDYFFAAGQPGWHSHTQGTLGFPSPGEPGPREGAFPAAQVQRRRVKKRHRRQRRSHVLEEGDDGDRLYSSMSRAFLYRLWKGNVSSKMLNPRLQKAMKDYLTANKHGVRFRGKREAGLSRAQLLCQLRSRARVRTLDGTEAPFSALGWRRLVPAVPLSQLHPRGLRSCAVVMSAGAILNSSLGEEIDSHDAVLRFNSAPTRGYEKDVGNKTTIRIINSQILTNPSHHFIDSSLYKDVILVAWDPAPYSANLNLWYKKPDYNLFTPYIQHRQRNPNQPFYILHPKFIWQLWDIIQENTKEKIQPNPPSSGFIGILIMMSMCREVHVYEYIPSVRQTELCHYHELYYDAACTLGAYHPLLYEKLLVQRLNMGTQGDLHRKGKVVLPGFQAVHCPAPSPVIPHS
Description: (§1) Using each expression vector and lipofectamine (Invitrogen), transient expression was carried out in COS-7 cells (Kojima, N. et al. (1995) FEBS Lett. 360, 1-4). The proteins of the present invention secreted from the cells into which each expression vector had been introduced were named as PA-hST6Gal II (human) and PA-mST6Gal II (mouse). PA-hST6Gal II and PA-mST6Gal II were adsorbed to IgG-Sepharose (Amersham Pharmacia Biotech), and were then recovered from medium. Sialyltransferase activity was measured as follows according to the method of Lee et al. (Lee, Y.-C. et al. (1999) J Biol. Chem. 274, 11958-11967). A reaction mixture (10 μl) containing 50 mM MES buffer (pH 6.0), 1 mM MgCl2, 1 mM CaCl2, 0.5% Triton CF-54, 100 μM CMP-[^14C]-NeuAc, a substrate sugar chain (which was added at 0.5 mg/ml in the case of glycolipids, and at 1 mg/ml in the case of glycoproteins or oligosaccharides), and a PA-hST6Gal II or PA-mST6Gal II suspension, was incubated at 37° C. for 3 to 20 hours. Thereafter, in the case of glycolipids, the reaction product was purified with a C-18 column (Sep-Pak Vac 100 mg; Waters) and the purified product was used as a sample. In the case of oligosaccharides or glycoproteins, the reaction product was directly used as a sample. Thus, the obtained sample was subjected to analysis. In the case of oligosaccharides or glycolipids, the sample was spotted on a silica gel 60 HPTLC plate (Merck), and it was then developed with a developing solvent consisting of 1-propanol:ammonia water:water=6:1:2.5 (for oligosaccharides), or a developing solvent consisting of chloroform:methanol: 0.02% CaCl2=55:45:10 (for glycolipids). In the case of glycoproteins, analysis was carried out by SDS-polyacrylamide gel electrophoresis. The obtained radioactivities were visualized with a BAS2000 radio image analyzer (Fuji Film) and then quantified.

[2] = target: T2, PA-mST6Gal II (mouse ST6Gal II) (Mus musculus, UniProt Q76K27, R48S); experiment: Sialyltransferase activity of PA-mST6Gal II toward acceptor substrates; format: biochemical; conditions: PA-mST6Gal II; incorporation with Galβ1,4GlcNAc taken as 100; 0.5 mg/ml glycolipids, 1 mg/ml glycoproteins and oligosaccharides
T2 construct: amino acids 31-524 in the case of mouse ST6Gal II; signal peptide of mouse immunoglobulin IgM (N); made in house; host or cells: COS-7 cells, transient expression of pcDSA-mST6Gal II; protein recovered from medium on IgG-Sepharose
T2 sequence (Q76K27 31-524 R48S): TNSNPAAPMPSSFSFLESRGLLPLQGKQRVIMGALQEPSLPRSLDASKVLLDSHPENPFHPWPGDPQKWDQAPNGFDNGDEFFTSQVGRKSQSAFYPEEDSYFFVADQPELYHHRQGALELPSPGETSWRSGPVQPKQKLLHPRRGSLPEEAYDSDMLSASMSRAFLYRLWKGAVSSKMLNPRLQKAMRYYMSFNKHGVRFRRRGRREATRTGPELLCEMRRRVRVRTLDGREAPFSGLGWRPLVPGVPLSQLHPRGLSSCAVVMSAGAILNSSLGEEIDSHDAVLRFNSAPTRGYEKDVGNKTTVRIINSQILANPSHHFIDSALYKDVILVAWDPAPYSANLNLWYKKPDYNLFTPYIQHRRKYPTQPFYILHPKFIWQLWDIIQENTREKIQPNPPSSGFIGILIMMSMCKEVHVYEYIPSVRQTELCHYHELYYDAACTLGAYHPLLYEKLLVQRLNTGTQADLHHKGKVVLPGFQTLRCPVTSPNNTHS
Description: as §1

Relative rate (%) Human ST6Gal II [1]: 1.2% | Relative rate (%) Mouse ST6Gal II [2]: 12.3%
Molecule: Asialo- α1-Acid glycoprotein: desialylated α1-acid glycoprotein prepared at 80° C. for 1 hour in 0.02 N HCl

Relative rate (%) Human ST6Gal II [1]: 3.9% | Relative rate (%) Mouse ST6Gal II [2]: 21.0%
Molecule: Asialofetuin: asialo glycoprotein acceptor substrate purchased from Sigma

Relative rate (%) Human ST6Gal II [1]: 0% | Relative rate (%) Mouse ST6Gal II [2]: 0%
Molecule: Fetuin: glycoprotein acceptor substrate containing both O-glycans and N-glycans, purchased from Sigma

Relative rate (%) Human ST6Gal II [1]: 0% | Relative rate (%) Mouse ST6Gal II [2]: 0%
Molecule: Galβ1,3GalNAcβ1,4(NeuAcα2,3)Galβ1,4Glcβ1-Cer [GM1a]

Relative rate (%) Human ST6Gal II [1]: 0% | Relative rate (%) Mouse ST6Gal II [2]: 0%
Molecule: Galβ1,4Glcβ1-Cer [Lactosylceramide]

Relative rate (%) Human ST6Gal II [1]: 0% | Relative rate (%) Mouse ST6Gal II [2]: 0%
Molecule: NeuAcα2,3Galβ1,4Glcβ1-Cer [GM3]

Relative rate (%) Human ST6Gal II [1]: 1.2% | Relative rate (%) Mouse ST6Gal II [2]: 0.75%
Molecule: α1-Acid glycoprotein: glycoprotein acceptor substrate purchased from Sigma

Relative rate (%) Human ST6Gal II [1]: 0% | Relative rate (%) Mouse ST6Gal II [2]: 0%
B1: Ovomucoid: glycoprotein acceptor substrate which contains only N-glycans (protein, UniProt P01005 25-210, looked up)
Ovomucoid: AEVDCSRFPNATDKEGKDVLVCNKDLRPICGTDGVTYTNDCLLCAYSIEFGTNISKEHDGECKETVPMNCSSYANTTSEDGKVMVLCNRAFNPVCGTDGVTYDNECLLCAHKVEQGASVDKRHDGGCRKELAAVSVDCSEYPKPDCTAEDRPLCGSDNKTYGNKCNFCNAVVESNGTLTLSHFGKC

Relative rate (%) Human ST6Gal II [1]: 0% | Relative rate (%) Mouse ST6Gal II [2]: 0%
B2: Asialoovomucoid: desialylated ovomucoid prepared at 80° C. for 1 hour in 0.02 N HCl (protein, UniProt P01005 25-210, looked up)
Ovomucoid: B1 Ovomucoid
modifications: desialylated
notes: desialylated ovomucoid prepared at 80° C. for 1 hour in 0.02 N HCl
